Assay results published in publication PMC4253670 (Biochemical and biophysical research communications, 2014).
Entries after “also recorded” stand apart in the source; their conditions may differ. Where no end group is shown, it is not given here.

B1: Cp: Purified human Cp (Vital Products), copper-containing ferroxidase (protein)
chain: KEKHYYIGIIETTWDYASDHGEKKLISVDTEHSNIYLQNGPDRIGRLYKKALYLQYTDETFRTTIEKPVWLGFLGPIIKAETGDKVYVHLKNLASRPYTFHSHGITYYKEHEGAIYPDNTTDFQRADDKVYPGEQYTYMLLATEEQSPGEGDGNCVTRIYHSHIDAPKDIASGLIGPLIICKKDSLDKEKEKHIDREFVVMFSVVDENFSWYLEDNIKTYCSEPEKVDKDNEDFQESNRMYSVNGYTFGSLPGLSMCAEDRVKWYLFGMGNEVDVHAAFFHGQALTNKNYRIDTINLFPATLFDAYMVAQNPGEWMLSCQNLNHLKAGLQAFFQVQECNKSSSKDNIRGKHVRHYYIAAEEIIWNYAPSGIDIFTKENLTAPGSDSAVFFEQGTTRIGGSYKKLVYREYTDASFTNRKERGPEEEHLGILGPVIWAEVGDTIRVTFHNKGAYPLSIEPIGVRFNKNNEGTYYSPNYNPQSRSVPPSASHVAPTETFTYEWTVPKEVGPTNADPVCLAKMYYSAVEPTKDIFTGLIGPMKICKKGSLHANGRQKDVDKEFYLFPTVFDENESLLLEDNIRMFTTAPDQVDKEDEDFQESNKMHSMNGFMYGNQPGLTMCKGDSVVWYLFSAGNEADVHGIYFSGNTYLWRGERRDTANLFPQTSLTLHMWPDTEGTFNVECLTTDHYTGGMKQKYTVNQCRRQSEDSTFYLGERTYYIAAVEVEWDYSPQREWEKELHHLQEQNVSNAFLDKGEFYIGSKYKKVVYRQYTDSTFRVPVERKAEEEHLGILGPQLHADVGDKVKIIFKNMATRPYSIHAHGVQTESSTVTPTLPGETLTYVWKIPERSGAGTEDSACIPWAYYSTVDQVKDLYSGLIGPLIVCRRPYLKVFNPRRKLEFALLFLVFDENESWYLDDNIKTYSDHPEKVNKDDEEFIESNKMHAINGRMFGNLQGLTMHVGDEVNWYLMGMGNEIDLHTVHFHGHSFQYKHRGVYSSDVFDIFPGTYQTLEMFPRTPGIWLLHCHVTDHIHAGMETTYTVLQNEDTKSG

How the values were obtained:
MPO [1] = molecular target: T1, MPO (Homo sapiens, UniProt P05164); experiment: Peptide screening, direct binding ELISA of 87 overlapping Cp peptides; settings: combined data of 87 ELISA plates; 24-mers not HPLC-purified; figure 2A
T1 sequence (P05164 279-745 limits assumed): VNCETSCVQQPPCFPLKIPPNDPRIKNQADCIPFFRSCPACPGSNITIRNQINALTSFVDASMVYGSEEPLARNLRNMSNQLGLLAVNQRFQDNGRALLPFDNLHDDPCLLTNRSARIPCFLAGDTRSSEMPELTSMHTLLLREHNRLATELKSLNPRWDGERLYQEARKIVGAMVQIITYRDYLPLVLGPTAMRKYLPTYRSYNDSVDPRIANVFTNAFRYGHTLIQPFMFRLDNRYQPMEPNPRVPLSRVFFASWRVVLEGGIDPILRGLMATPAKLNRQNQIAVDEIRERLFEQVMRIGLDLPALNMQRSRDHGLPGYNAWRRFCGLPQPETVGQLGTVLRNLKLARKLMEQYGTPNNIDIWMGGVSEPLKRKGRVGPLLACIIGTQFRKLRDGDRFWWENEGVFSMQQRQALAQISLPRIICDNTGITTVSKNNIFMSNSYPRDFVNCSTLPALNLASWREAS
T1 sequence (P05164 165-273 limits assumed): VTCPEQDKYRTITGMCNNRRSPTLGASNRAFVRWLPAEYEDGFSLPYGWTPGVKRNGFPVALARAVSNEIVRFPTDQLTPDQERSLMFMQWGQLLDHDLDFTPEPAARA

MPO [2] = molecular target: T1, MPO; experiment: Direct binding ELISA of HPLC-purified peptides; settings: 24-mer P18, 21-mers of P18, P48, P76, negative controls P28 and P61, mean ± SEM, n = 4 wells, p<0.05, figure 3B
MPO [3] = molecular target: T1, MPO; experiment: Surface plasmon resonance, immobilized MPO; settings: read-out: binding affinity (Kd); MPO immobilized on CM5 chip via -NH2; Cp 1 to 200 nM; Biacore3000, 30 μl/min; Biaevaluation software
MPO [4] = settings: ref [14]; cited from earlier work
Cp = settings: oxidation of ferrous ions and removal of peroxides; ref [14]; cited from earlier work

Molecule	peptide-MPO to Cp-MPO absorbance ratio (MPO [1])	binding of MPO to HPLC-purified surface-adsorbed peptide (MPO [2])	Kd (MPO [3]) [nM]	binding to and inhibition of myeloperoxidase (MPO [4])	effect of MPO binding on antioxidant activities of Cp (Cp)
VVDENFSWYLEDNIKTYCSEPEKV [P18]	two major peaks	bound more MPO than its shorter, 21-mer version; also recorded: bound more MPO than P76	–	–	–
B1	–	–	30	bind and inhibit myeloperoxidase (MPO)	does not inhibit important antioxidant activities of Cp
